Test results as given in paper PMC314469, “Protein Interaction Networks by Proteome Peptide Scanning” (PLoS Biology, 2004).

T1: amphyphisin SH3 (AMPH_HUMAN), P49418
T1 chain: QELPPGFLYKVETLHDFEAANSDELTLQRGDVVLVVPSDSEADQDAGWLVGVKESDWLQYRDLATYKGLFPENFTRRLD


Columns and labels:
[1] = target: T1, amphyphisin SH3 (AMPH_HUMAN), P49418; experiment: SPOT array
[2] = target: endophilin SH3 (SH3G2_HUMAN), Q99962; experiment: SPOT array

normalised SPOT signal, Boehringer light units (BLU); mean over the file's lines of this peptide [1] | normalised SPOT signal, Boehringer light units (BLU); mean over the file's lines of this peptide [2] | Binder
535 | 173 | ISSQIERPIRIVAL [O75643 1042-1055]
56.9 | 46.4 | IYVSLKRPSWMVDN [P42702 4-17]
55.7 | 5.6 | IQVAFRRPETPSSG [Q9H8D9 51-64]
1530 | 7630 | ALTLPRRPFLHSST [Q9H6Z2 106-119]
39.1 | 46.8 | ITKSLRRPETSYRQ [P24821 757-770]
973 | 398 | IRQILSRPERLLFI [Q9C000 395-408]
929 | 730 | ISWGLRRPIRLQMQ [P50749 58-71]
48.3 | 2120 | KASRPIKPPGPPIN [Q8WZ42 18722-18736]
27.3 | 173 | ISFHPKRPVHILLH [Q96T13 405-418]
146 | 13600 | KAFPPPRPPPPNWE [Q9ULL8 1100-1114]
186 | 1100 | IRLSPNRPPLGGSS [P98161 2462-2476]
36.3 | 18.8 | ITGTLKRPSLPEEE [O14514 1249-1262]
30.6 | 14.7 | ISELIKRPNVSPKV [Q9NX58 81-94]
13100 | 925 | ISMKFLRPLRVLSQ [Q01118 1027-1040]
97.3 | 54.1 | IRGLLARPAKLQVQ [P07202 539-552]
41.6 | 59.3 | ITVSPNKPPAVSPG [Q9UFP7 465-479]
27.4 | 147 | IVYSFRRPVWPAVV [Q9Y5I0 277-290]
40.8 | 47.6 | KANSPEKPPEAGAA [Q9UFC0 257-271]
42.4 | 130 | ISFIIKRPFLEPKK [P78347 180-193]
9.8 | 120 | ISHRLRRPGAPPST [Q9H669 126-139]
28 | 3150 | KAGRPSKPPSPKQN [Q9P2M4 294-308]

normalised SPOT signal, Boehringer light units (BLU); mean over the file's lines of this peptide [1] | normalised SPOT signal, Boehringer light units (BLU); mean over the file's lines of this peptide [2] | Binder
19.8 | 114 | IYSTLKRPQVETKI [Q14699 89-102]
727 | 112 | ALSLPEKPPRGEQG [O94819 607-621]
85 | 60.3 | IYTELSRPSKRRMQ [Q9UJU8 278-291]
38.3 | 39.9 | IRFKLKRPLEDGGR [O95444 196-209]
28.5 | 29.8 | IQFVIKRPELLTEG [O95444 633-646]
56.1 | 524 | ISFHPKRPMHILLH [Q96SZ9 375-388]
51.2 | 260 | ALTSPGRPPMGFTT [BAC03837 101-115]
216 | 1960 | ISTPPSRPPQVKTA [Q01826 463-477]
13 | 43.3 | IVKQIRRPKHVVVK [Q9Y4F1 101-114]
4960 | 19900 | IRLPPARPPTPGRS [AAM34265 504-518]
164 | 127 | KAGSISRPAKDESD [Q9H2U9 455-468]
12900 | 5010 | ISSVPRRPARALHP [Q9HBK4 869-882]
71.7 | 109 | IQEALKRPMKQKRK [Q92926 129-142]
1350 | 492 | ALSRLARPQRLPVA [P80365 68-81]
56.5 | 5.9 | ISRRLRRPPHVGRA [O00155 224-237]
8570 | 3140 | KAPPPTRPKRNDST [Q9C0I2 1104-1117]
26.3 | 0 | IRSALKRPVEQPLG [P48165 231-244]
48.1 | 90.4 | AAPFPDRPPAHLVS [Q9P283 1-15]
92.2 | 89.8 | IQEALKRPIKQKRK [Q9Y635 106-119]
6730 | 6160 | ITLTPVRPDRTPRP [Q9H5F9 434-447]
56.2 | 68.6 | KAISFLRPTKENVD [Q9Y4Z6 67-80]
